# Source: paper PMC7397094
# Like-named read-outs stand apart in the source and are kept apart here.
# Experiments:
# [1] = molecular target: human recombinant RetGC1 (retinal membrane guanylyl cyclase 1) (human) (UniProt Q02846)
# [2] = molecular target: human recombinant RetGC1 (retinal membrane guanylyl cyclase 1) (human) (UniProt Q02846); remark: listed apart in the source
# [3] = molecular target: human recombinant RetGC1 (retinal membrane guanylyl cyclase 1) (human) (UniProt Q02846); remark: listed apart in the source
# [4] = molecular target: human recombinant RetGC1 (retinal membrane guanylyl cyclase 1) (human) (UniProt Q02846); remark: listed apart in the source
# Sequence of UniProt Q02846 (Q02846 52-1103): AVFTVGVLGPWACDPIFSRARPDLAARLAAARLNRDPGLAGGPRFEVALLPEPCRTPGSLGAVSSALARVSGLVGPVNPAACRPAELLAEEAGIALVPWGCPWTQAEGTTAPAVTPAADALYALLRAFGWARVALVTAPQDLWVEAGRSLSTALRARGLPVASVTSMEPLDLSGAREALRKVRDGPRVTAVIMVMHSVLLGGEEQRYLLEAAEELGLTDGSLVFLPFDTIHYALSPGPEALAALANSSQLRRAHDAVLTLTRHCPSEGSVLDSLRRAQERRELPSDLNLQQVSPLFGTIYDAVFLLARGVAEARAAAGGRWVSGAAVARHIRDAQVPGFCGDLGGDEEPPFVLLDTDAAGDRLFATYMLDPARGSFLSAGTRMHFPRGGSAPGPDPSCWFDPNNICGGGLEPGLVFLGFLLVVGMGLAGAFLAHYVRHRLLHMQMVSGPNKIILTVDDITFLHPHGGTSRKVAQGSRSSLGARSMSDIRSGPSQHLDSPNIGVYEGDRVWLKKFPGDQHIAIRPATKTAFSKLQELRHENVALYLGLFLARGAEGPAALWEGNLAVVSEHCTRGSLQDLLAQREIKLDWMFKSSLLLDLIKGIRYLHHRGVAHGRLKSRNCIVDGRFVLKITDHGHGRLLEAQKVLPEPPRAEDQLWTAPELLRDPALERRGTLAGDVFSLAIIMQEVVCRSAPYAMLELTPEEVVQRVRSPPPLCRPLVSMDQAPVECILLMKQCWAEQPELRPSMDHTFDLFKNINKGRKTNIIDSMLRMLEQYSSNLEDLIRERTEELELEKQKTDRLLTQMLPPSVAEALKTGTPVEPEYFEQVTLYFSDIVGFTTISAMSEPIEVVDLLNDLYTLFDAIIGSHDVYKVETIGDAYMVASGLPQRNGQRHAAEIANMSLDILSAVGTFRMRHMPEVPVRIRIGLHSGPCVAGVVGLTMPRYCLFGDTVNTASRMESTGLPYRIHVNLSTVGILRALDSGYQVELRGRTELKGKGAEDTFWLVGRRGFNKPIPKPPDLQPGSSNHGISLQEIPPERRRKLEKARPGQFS
Substance,"RetGC1 activity left with 100 nM RD3, % of that without RD3 (1.5 uM GCAP1) [1] [%]",IC50 of inhibition of GCAP1-activated RetGC1 activity [2] [µM],IC50 of inhibition of GCAP1-activated RetGC1 activity [3] [µM],IC50 of inhibition of GCAP1-activated RetGC1 activity (empirical estimate) [4] [µM]
RD3 P146ter (from UniProt Q7Z3Z2 1-145) (domain or fragment),11.7,0.0034,,
RD3 D59R (from UniProt Q7Z3Z2 1-195) (natural protein),24.1,,0.0266,
RD3 A105R (from UniProt Q7Z3Z2 1-195) (natural protein),8.5,,0.0036,
RD3 Y60A (from UniProt Q7Z3Z2 1-195) (natural protein),65.3,,0.63,
RD3 W6L/W9L (from UniProt Q7Z3Z2 1-195) (natural protein),13.4,0.0045,,
"WT RD3 (retinal degeneration-3), bacterially expressed (from UniProt Q7Z3Z2 1-195) (natural protein)",11,,0.0036,
RD3 Q102L (from UniProt Q7Z3Z2 1-195) (natural protein),28.5,,0.059,
RD3 L63R (from UniProt Q7Z3Z2 1-195) (natural protein),82.8,,0.882,

# More lines, now with the values ahead:
"RetGC1 activity left with 100 nM RD3, % of that without RD3 (1.5 uM GCAP1) [1] [%]",IC50 of inhibition of GCAP1-activated RetGC1 activity [2] [µM],IC50 of inhibition of GCAP1-activated RetGC1 activity [3] [µM],IC50 of inhibition of GCAP1-activated RetGC1 activity (empirical estimate) [4] [µM],Substance
17.9,,0.0167,,RD3 A105Y (from UniProt Q7Z3Z2 1-195) (natural protein)
13.3,,0.0098,,RD3 Y92A (from UniProt Q7Z3Z2 1-195) (natural protein)
15.5,,0.0156,,RD3 S74R (from UniProt Q7Z3Z2 1-195) (natural protein)
48,,0.261,,RD3 R101A (from UniProt Q7Z3Z2 1-195) (natural protein)
17.5,,0.0135,,RD3 E106K (from UniProt Q7Z3Z2 1-195) (natural protein)
37.9,,0.135,,RD3 R101E (from UniProt Q7Z3Z2 1-195) (natural protein)
22.5,,0.0207,,RD3 G94Y (from UniProt Q7Z3Z2 1-195) (natural protein)
49.7,,0.253,,RD3 W62A (from UniProt Q7Z3Z2 1-195) (natural protein)
27.1,,0.0355,,RD3 R99E (from UniProt Q7Z3Z2 1-195) (natural protein)
,,,> 10,RD3 W62A/L63R (from UniProt Q7Z3Z2 1-195) (natural protein)
